Data on 9 molecules can be found in patent US20180021429A1 (PHARMA FOODS INTERNATIONAL, published 2018).

For orientation: Kd means the equilibrium constant for the complex coming apart.

Assay [1] has as its target T1, human FSTL1 (construct not stated) (human, UniProt Q12841 21-308).
T1 construct: also called human FSTL1 antigen; FSTL1 (R&D Systems, Inc. Cat#1694-FN-050)
T1 sequence: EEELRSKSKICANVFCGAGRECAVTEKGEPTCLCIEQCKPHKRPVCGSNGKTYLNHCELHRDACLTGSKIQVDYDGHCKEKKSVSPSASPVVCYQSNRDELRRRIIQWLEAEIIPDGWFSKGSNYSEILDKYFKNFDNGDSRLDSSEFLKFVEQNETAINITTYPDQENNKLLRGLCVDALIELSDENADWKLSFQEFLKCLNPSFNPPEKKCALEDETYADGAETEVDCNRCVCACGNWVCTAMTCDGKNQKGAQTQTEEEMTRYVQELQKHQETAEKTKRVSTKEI
Kind of assay: SPR (Biacore T-200), captured antibody, human FSTL1 10 µg/ml. Here is the method:
(§1) The mouse chimeric antibodies were immobilized onto Sensor Chip CM5 (GE Healthcare Japan Corp., BR-1005-30) using Mouse Antibody Capture Kit (GE Healthcare Japan Corp., BR-1008-38), and their affinity for human FSTL1 was calculated using Biacore T-200 (GE Healthcare Japan Corp.).
(§2) First, the exhaustive activity comparison of the obtained antibodies was conducted with the human FSTL1 concentration fixed to 10 μg/ml (Table 33-1, FIG. 28).
On the technique in general: SPR reads the build-up and loss of mass on a sensor chip optically.

Assay [2] concerns the target T1, human FSTL1 (construct not stated). The description is as above. Here is the method:
as §1, §2
The source holds these as a separate data set.

The target is the same in assay [3]. Described as above. How it is done: as §1, §2
This is another data set of the same source.

Assay [4] shares this target. The description is as above. How it is done:
as §1
This is another data set of the same source.

In assay [5] the target is T2, His-tagged mouse FSTL1 (amino acid sequence of mouse FSTL1 used in Examples, SEQ ID NO: 72) (mouse, UniProt Q62356 19-306).
T2 sequence: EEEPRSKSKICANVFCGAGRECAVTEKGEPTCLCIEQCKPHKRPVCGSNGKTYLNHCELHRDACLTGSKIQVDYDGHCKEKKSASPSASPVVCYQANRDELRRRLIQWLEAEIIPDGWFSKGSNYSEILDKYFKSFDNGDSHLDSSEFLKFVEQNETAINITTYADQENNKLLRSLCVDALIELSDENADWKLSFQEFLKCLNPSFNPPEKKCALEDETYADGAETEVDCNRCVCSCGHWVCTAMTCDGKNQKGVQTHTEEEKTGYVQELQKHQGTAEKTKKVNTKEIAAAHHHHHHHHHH
Kind of assay: ELISA, mouse FSTL1 coated (FIG. 3B).

The target in assay [6] is T1, human FSTL1 (construct not stated). Kind of assay: SPR (Biacore T-200), antibody on Human Antibody Capture Kit, human FSTL1 0 to 20 µg/ml. How it is done: (§3) Nine IgG1-type humanized antibodies of #6-55 were immobilized onto Sensor Chip CM5 (GE Healthcare Japan Corp., BR-1005-30) using Human Antibody Capture Kit (GE Healthcare Japan Corp., BR-1008-38), and their affinity for human FSTL1 was calculated using Biacore T-200 (GE Healthcare Japan Corp.). […] Among the 9 IgG1-type humanized antibodies of #6-55, a clone composed of a combination “H(2)-L(1)” having a […] KD value was selected as a lead antibody.

For assay [7] the target is unchanged. The description is as above. Here is the method:
as §3
This is another data set of the same source.

Where two headings read alike, the source gives them in different places.
Wherever Dissociation amount (RU) is given: time not given here.

B1: anti-FSTL1 antibody clone #8-7 (chicken-mouse chimeric antibody) (antibody, mouse IgG1, kappa, V domains shown)
VH: AVTLDESGGGLQTPGGGLSLVCKGSGFTFSSFNMFWVRQAPGKGLEWVAGIGKDGVPKYGAAVDGRATISKDNGQSTLRLQLNNLRAEDTGTYFCAKAAGGCSYDWCGIYAGDIDTWGHGTEVIVSS
VL: ASTQPSSVSANPGEAVKITCSGGSGSYYGWYQQKSPGSAPVTVIYNNNQRPSDIPSRFSGSKSGSTATLTITGVQAEDEAVYFCGGYDSSTGHGGIFGAGTTLTVLG
In the case of B1, the “Binding amount (RU)” value in assay [1], in assay [2], in assay [3] and in assay [4] was 12.8 RU in each case. The “Dissociation amount (RU)” value in assay [1], in assay [2], in assay [3] and in assay [4] was 11.8 RU each time.

B2: anti-FSTL1 antibody clone #5-3 (chicken-mouse chimeric antibody) (antibody, mouse IgG1, kappa, V domains shown)
VH: AVTLDESGGGLQTPGGALSLVCKGSGFSFSSFNMFWVRQAPGKGLEWVAGIGKDGVPKYGAAVDGRATISKDNGQSTMRLQLNNLRAEDTGTYFCAKAAGGCSYDWCGIYAGDIDTWGHGTEVIVSS
VL: ASTQPSSVSANPGETVKITCSGGSGYYYGWYQQKSPGSVPVTVIYNNNNRPSDIPSRFSGSKSGSTGTLTITGVRAEDEAVYYCGGYDNSGTGIFGAGTTLTVLG
For the molecule B2, the “Binding amount (RU)” value in assay [1], in assay [2], in assay [3] and in assay [4] was 11 RU in each case. The “Dissociation amount (RU)” value in assay [1], in assay [2], in assay [3] and in assay [4] was 8.8 RU in each case.

B3: anti-FSTL1 antibody clone #8-8 (chicken-mouse chimeric antibody) (antibody, mouse IgG1, kappa, V domains shown)
VH: AVTLDESGGGLQTPGGALSLVCKGSGFTFSSFNMFWVRQAPGKGLEWVAGIGKDGVPKYGAAVDGRATISKDNGQSTMRLQLNNLRAEDTGTYYCAKAAGGCSYGWCGAYTGDIDTWGHGTEVIVSS
VL: ASTQPSSVSANPGEAVKITCSGGSGSYYGWYQQKSPGSAPVTVIYNNNQRPSDIPSRFSGSKSGSTATLTITGVQVEDEAVYFCGGYDSSTGHGGIFGAGTTLTVLG
Regarding B3, the “Binding amount (RU)” value in assay [1], in assay [2], in assay [3] and in assay [4] was 8 RU throughout. Further, the “Dissociation amount (RU)” value in assay [1], in assay [2], in assay [3] and in assay [4] was 4.7 RU in each case.

B4: anti-FSTL1 antibody clone #5-2 (chicken-mouse chimeric antibody) (antibody, mouse IgG1, kappa, V domains shown)
VH: AVTLDESGGGLQTPGGGLSLVCKGSGFTFSSFNMFWVRQAPGKGLEWVAGVGKDGGTGYGAAVDGRATISKDNGQSTLRLQLNNLRAEDTGTYYCAKAAGGCSYGWCGSYVGDIDAWGHGTEVIVSS
VL: ASTQPSSVSANPGEAVKITCSGGSGSYYGWYQQKSPGSAPVTVIYNNNQRPSDIPSRFSGSKSGSTATLTITGVQAEDEAVYFCGGYDSSTGHGGIFGAGTTLTVLG
As to B4, the “Binding amount (RU)” value in assay [1], in assay [2], in assay [3] and in assay [4] was 9.2 RU in each case. Also, the “Dissociation amount (RU)” value in assay [1], in assay [2], in assay [3] and in assay [4] was 7.1 RU each time.

B5: anti-FSTL1 antibody clone #5-43 (chicken-mouse chimeric antibody) (antibody, mouse IgG1, kappa, V domains shown)
VH: AVTLDESGGGLQTPGGGLSLVCKGSGFTFSSFNMFWVRQAPGKGLEWVAGIGKDGGTGYGAAVDGRATISKDSGQSTLRLQLNNLRAEDTGTYYCAKAAGGCSYDWCGAYTGDIDTWGHGTEVIVSS
VL: ASTQPSSVSANPGEAVKITCSGGSGSYYGWYQQKSPGSAPVTVIYNNNQRPSDIPSRFSGSKSGSTATLTITGVQAEDEAVYFCGGYDSSTGHGGIFGAGTTLTVLG
B5: the “Binding amount (RU)” value in assay [1], in assay [2], in assay [3] and in assay [4] was 7 RU throughout. In addition, the “Dissociation amount (RU)” value in assay [1], in assay [2], in assay [3] and in assay [4] was 3.1 RU each time.

B6: anti-FSTL1 antibody clone #13 (chicken-mouse chimeric antibody) (antibody, mouse IgG1, kappa, V domains shown)
VH: AVTLDESGGGLQTPGGGLSLVCKASGFTFSSVTMQWVRQAPGKGLEWVASICSGSSTYYGPAVKGRATISRDNGQNTVRLQLNNLRAEDTATYYCAKIVGRGRWSCTSAAYNIDAWGHGTEVIVSS
VL: ASTQPSSVSANPGETVKITCSGGGNNYGWYQQKSPGSAPVTVIYNNNNRPSNIPSRFSGSKSGSTNTLTITGVQAEDEAVYYCGSYDSSSDSGIFGAGTTLTVLG
Turning to B6, the binding result in assay [5] is “binds”. The “Binding amount (RU)” value in assay [1], in assay [2], in assay [3] and in assay [4] was 8.7 RU each time. Further, the “Dissociation amount (RU)” value in assay [1], in assay [2], in assay [3] and in assay [4] was 0.2 RU each time.

B7: anti-FSTL1 antibody clone #5-10 (chicken-mouse chimeric antibody) (antibody, mouse IgG1, V domains shown)
VH: AVTLDESGGGLQTPGGGLSLVCKGSGFTLSSFNMFWVRQAPGKGLEWVAGVGKDGGTTYGAAVDGRATISRDSGQSTVRLQLNDLRAEDTGTYFCAKAAGGCSYSWCGAYVGDLDAWGHGTEVIVSS
VL: ASTQPSSVSANPGETVKITCSGGGSYVGSYYYGWYQQKSPGSAPVTVIYNNNQRPSDIPSRFSGSKSGSTATLTITGVQAEDEAVYFCGGYDSSAGGIFGAGTTLTVLG
Consider B7, for which the “Binding amount (RU)” value in assay [1], in assay [2], in assay [3] and in assay [4] was 9.8 RU in each case. Besides, the “Dissociation amount (RU)” value in assay [1], in assay [2], in assay [3] and in assay [4] was 12.1 RU throughout.

B8: anti-FSTL1 antibody clone #33 (chicken-mouse chimeric antibody) (antibody, mouse IgG1, kappa, V domains shown)
VH: AVTLDESGGGLQTPGGGLSLVCKASGFTFSSFNMNWVRQAPGKGLEYVAEISGTGSSTYYGSAVKGRATISRDNGQSTVRLQLNNLRAEDTATYFCARGDGAYSIDAWGHGTEVIVSS
VL: ASTQPSSVSANPGETVEITCSGDSSYYGWFQQKSPGSAPVTVIYDNTNRPSDIPSRFSGSKSGSTATLTITGVRAEDEAVYYCGGYDSSTYDGIFGAGTTLTVLG
B8: the binding result in assay [5] is reported as “binds”. Further, the “Binding amount (RU)” value in assay [1], in assay [2], in assay [3] and in assay [4] was 10.9 RU in each case. Moreover, the “Dissociation amount (RU)” value in assay [1], in assay [2], in assay [3] and in assay [4] was 4.1 RU in each case.

B9: humanized #6-55 antibody H(3)-L(1) (IgG1 type) (antibody, V domains shown)
VH: EVQLLESGGGLVQPGGSLRLSCAASGFTFSSVTMQWVRQAPGKGLEFVASVCSGSSTYYAPAVKGRVTISRDNSKNTVYLQMNSLRAEDTAVYYCAKIAGRARWSCTSAAYNIDAWGQGTLVTVSS
VL: SYELTQPPSVSVSPGQTARITCSGGGNNYGWYQQKPGQAPVTVIYYNDNRPSGIPERFSGSNSGSTTTLTISGVQAEDEADYYCGSWDSNTDSGIFGGGTKLTVLG
notes: Human IgG1 constant region; expressed in HEK293; also called h#6-55 H(3)-L(1)
Turning to B9, the Kd in assay [6] and in assay [7] was 26.7 nM in each case.
